Assay results: patent US20260116960A1 (SHANGHAI HONGCHENG BIOPHARMACEUTICAL, published 2026)

Experiments:
[1] = target: T1, human PD-1 protein (Acro, Catalog No. PD1-H5221) (human, UniProt Q15116 25-167); test: ELISA, plate coated with human PD-1 protein
T1 construct: Bought protein; also called human PD1-his; not shown: his tag

[2] = target: T2, human PD-1 on the cell surface (human, UniProt Q15116 25-288); test: flow cytometry, 293T-hPD-1 cells, batch FACS#1
T2 construct: whole, on cells; also called cell surface PD-1
T2 sequence (Q15116 25-288): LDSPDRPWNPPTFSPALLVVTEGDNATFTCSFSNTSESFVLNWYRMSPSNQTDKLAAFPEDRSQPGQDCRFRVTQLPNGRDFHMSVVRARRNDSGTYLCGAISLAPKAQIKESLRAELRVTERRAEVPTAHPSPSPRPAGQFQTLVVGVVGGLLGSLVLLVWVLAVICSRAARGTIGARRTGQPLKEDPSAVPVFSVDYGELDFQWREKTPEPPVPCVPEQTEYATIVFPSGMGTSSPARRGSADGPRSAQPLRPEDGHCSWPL
Description: After centrifugation at 300 g for 5 minutes, the supernatant was discarded. The antibodies were serially diluted 3-fold with FACS buffer to obtain two gradient series solution FACS #1 and FACS #2, with the starting concentration of 200 nM (Table 5, FACS #1) or 100 nM (Table 5, FACS #2, FIG. 2), respectively. Then 100 μL/well was added to a 96-well plate in triplicate, mixed, and incubated at 4° C. for 60 min. The plate was centrifuged and washed three times with FACS buffer. 100 μL/well of 1:800 diluted AF647-anti-hIgG(H+L) (Jackson, Catalog No.: 109-605-003) was added and incubated at 4° C. for 50 minutes. After washing the plate three times with FACS buffer, 100 μL/well of FACS buffer was added to resuspend the cells, and the fluorescence signal was detected on a flow cytometer (BECKMAN COULTER cytoFLEX). The binding activity was fitted using a four-parameter model to calculate the EC₅₀ value of each antibody binding to PD-1.

[3] = target: T2, human PD-1 on the cell surface; test: flow cytometry competition, 293T-hPD-1 cells, biotin-human PD-L1
[4] = target: T3, human CTLA-4 on the cell surface (human, UniProt P16410 36-223); test: flow cytometry competition, 293T-hPD-1-hCTLA-4 cells (PD-1 co-expressed), biotin-human CD80
T3 construct: whole, on cells; also called CHO-hCTLA-4 cells; CHOK1-hCTLA4 cells
T3 sequence (P16410 36-223): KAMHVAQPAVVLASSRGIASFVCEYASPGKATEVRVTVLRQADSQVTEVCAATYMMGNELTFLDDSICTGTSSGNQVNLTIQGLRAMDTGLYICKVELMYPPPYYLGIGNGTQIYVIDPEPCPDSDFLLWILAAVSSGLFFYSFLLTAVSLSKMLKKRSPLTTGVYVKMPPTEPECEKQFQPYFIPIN

[5] = target: T4, hPD1-mFc (Acro, Catalog No. PD1-H5255) (human, UniProt Q15116 25-167); test: flow cytometry: antibody titrated on CHOK1-hCTLA4 cells, then mixture of hPD1-mFc and biotin-hVEGF165; AF647 anti-mIgG signal
T4 construct: Bought protein; also called human PD-1 mouse Fc fusion; not shown: mouse Fc (mFc)
T4 sequence (Q15116 25-167 limits assumed): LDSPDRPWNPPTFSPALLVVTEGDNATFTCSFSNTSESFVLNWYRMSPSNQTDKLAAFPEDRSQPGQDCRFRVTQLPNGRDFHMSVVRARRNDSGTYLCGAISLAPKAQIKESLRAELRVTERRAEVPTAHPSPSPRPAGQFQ
Description: CHOK1-hCTLA4 cells were obtained by trypsin digestion, washed twice with PBS containing 2% FBS (FACS buffer), and the cell density was adjusted to about 8×10⁵ cells/ml. 200 μL/well of the cells were added to a 96-well U-bottom plate. After centrifugation at 300 g for 5 minutes, the supernatant was discarded and 100 μL of antibody solution serially diluted with FACS buffer was added in triplicate (with starting concentration of 200 nM, 3-fold serial dilution, and the same volume of FACS buffer was used as a negative control). Mixed well and incubated at 4° C. for 60 min. After washing the plate three times with FACS buffer, a mixture consisting of 1 μg/mL hPD1-mFc (Acro, Catalog No.: PD1-H5255) and 1 μg/mL Biotin-hVEGF165 in a 1:1 volume ratio was added to each well at 100 μL/well to detect the simultaneously binding activity of the trispecific antibodies to VEGF and PD-1 after binding to cell surface CTLA-4. […] After washing the plate three times with FACS buffer, 100 μL/well of PBS solution was added to resuspend the cells, and the fluorescence signal was detected on a flow cytometer. The binding activity was fitted using a four-parameter model, and the EC₅₀ value of each antibody was calculated.

T1 sequence (Q15116 25-167 limits assumed): as above

B1: HC010-F9 (trispecific antibody, human IgG4 S228P, kappa)
heavy: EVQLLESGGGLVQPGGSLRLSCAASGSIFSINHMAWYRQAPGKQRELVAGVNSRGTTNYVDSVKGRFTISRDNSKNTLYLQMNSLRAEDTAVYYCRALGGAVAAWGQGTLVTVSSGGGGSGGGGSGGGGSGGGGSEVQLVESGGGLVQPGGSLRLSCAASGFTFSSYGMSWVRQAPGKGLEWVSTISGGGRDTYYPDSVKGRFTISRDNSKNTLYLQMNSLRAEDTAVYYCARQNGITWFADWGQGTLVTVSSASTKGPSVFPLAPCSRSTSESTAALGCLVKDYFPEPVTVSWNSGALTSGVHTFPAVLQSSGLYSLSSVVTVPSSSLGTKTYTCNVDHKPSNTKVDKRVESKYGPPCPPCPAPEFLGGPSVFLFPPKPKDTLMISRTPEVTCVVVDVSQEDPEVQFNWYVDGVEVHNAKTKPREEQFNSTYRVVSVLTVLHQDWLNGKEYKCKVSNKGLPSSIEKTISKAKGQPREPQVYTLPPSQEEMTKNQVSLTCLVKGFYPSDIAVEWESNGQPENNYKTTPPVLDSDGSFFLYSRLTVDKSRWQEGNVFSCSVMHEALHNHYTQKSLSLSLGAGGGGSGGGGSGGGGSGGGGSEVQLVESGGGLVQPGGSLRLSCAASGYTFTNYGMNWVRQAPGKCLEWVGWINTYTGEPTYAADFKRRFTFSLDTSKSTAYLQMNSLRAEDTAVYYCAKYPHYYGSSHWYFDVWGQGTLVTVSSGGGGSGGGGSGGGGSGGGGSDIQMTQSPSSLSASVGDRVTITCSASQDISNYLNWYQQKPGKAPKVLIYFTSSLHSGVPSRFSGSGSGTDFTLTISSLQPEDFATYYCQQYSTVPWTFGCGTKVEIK
light: DIQMTQSPSSLSASVGDRVTITCRASESVDNYGISFMNWYQQKPGKAPKLLIYAASNQGSGVPSRFSGSGSGTDFTLTISSLQPEDFATYYCQQSKEVPWTFGGGTKVEIKRTVAAPSVFIFPPSDEQLKSGTASVVCLLNNFYPREAKVQWKVDNALQSGNSQESVTEQDSKDSTYSLSSTLTLSKADYEKHKVYACEVTHQGLSSPVTKSFNRGEC
notes: light: CQ1-3/1-11 VL-kappa; also called H010-F9
- EC50 [1]: 0.082 nM
- EC50 [2]: 3.53 nM
- IC50 [3]: 5 nM
- IC50 [4]: ~0.002 nM
- EC50 [5]: 1.53 nM

B2: HC010-F10 (trispecific antibody, human IgG4 S228P, kappa)
heavy: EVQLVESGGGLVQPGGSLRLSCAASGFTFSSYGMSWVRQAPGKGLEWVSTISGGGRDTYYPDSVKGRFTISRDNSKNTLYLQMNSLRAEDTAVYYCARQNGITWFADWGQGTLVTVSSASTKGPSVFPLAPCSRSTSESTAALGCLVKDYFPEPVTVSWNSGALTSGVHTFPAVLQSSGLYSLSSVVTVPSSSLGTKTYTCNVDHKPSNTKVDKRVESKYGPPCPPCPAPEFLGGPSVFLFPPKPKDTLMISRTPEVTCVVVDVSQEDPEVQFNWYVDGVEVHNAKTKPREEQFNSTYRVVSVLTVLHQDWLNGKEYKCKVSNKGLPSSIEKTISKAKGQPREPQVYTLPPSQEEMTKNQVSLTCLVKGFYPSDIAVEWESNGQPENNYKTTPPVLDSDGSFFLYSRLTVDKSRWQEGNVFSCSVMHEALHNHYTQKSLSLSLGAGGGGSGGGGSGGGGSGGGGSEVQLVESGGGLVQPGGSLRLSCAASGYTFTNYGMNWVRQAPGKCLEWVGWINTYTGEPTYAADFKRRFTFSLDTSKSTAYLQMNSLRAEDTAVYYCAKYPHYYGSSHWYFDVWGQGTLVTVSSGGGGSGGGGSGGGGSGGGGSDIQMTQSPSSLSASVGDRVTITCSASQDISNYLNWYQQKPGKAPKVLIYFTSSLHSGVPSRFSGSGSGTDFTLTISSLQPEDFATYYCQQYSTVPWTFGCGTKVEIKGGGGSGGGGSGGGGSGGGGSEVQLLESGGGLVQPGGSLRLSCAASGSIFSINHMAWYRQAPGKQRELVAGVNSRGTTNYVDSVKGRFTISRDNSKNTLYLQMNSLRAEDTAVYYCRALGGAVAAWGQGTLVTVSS
light: B1 light
notes: light: CQ1-3/1-11 VL-kappa; also called H010-F10
- EC50 [1]: 0.093 nM
- EC50 [2]: 5.77 nM
- IC50 [3]: 4.5 nM
- IC50 [4]: 0.056 nM
- EC50 [5]: 2.73 nM
